From US20130115212A1 (LUNDBECK A S, published 2013)
Where no end group is shown, it is not given here.

Tests used:
[1] = target: SorLA expressed on cells (stably transfected HEK293 cells; SY5Y neuroblastoma cells, endogenous or overexpressed) (Homo sapiens) (UniProt Q92673); test: FRET on non-permeabilized fixed cells, SorLA acceptor, GFRα1 donor
[2] = target: SorLA extracellular domain (immobilized on the Biacore chip) (Homo sapiens) (UniProt Q92673); test: SPR, immobilized SorLA
[3] = target: SorLA extracellular domain (immobilized on the Biacore chip) (Homo sapiens) (UniProt Q92673); test: SPR (Biacore), SorLA immobilized; series of 20, 50, 100 and 200 nM
[4] = target: SorLA extracellular domain (immobilized on the Biacore chip) (Homo sapiens) (UniProt Q92673); test: SPR, GFRα1 over immobilized SorLA extracellular domain
[5] = target: T1, SorLA extracellular domain (immobilized on the Biacore chip) (Homo sapiens, UniProt Q92673 82-2137); test: SPR (Biacore), SorLA immobilized; SorLApro 10 uM by the legend, injected before GDNF in the inhibition experiment
T1 construct: also called immobilized SorLA; LR11
Experimental: (§1) (A) The domain structure of SorLA is depicted. (B) GDNF binds to immobilized SorLA in a concentration-dependent manner as shown by SPR. […] (C) SorLA binding is selective for GDNF and not the other GDNF family ligands, artemin, neuturin, and persephin. The neurotrophic factor concentrations used are 20 nM. (D) The interaction is mediated by the mature part of GDNF and not the GDNF propeptide (GDNFpro). Sensorgrams of 100 nM ligand concentration are shown. […] (G-H) Internalization of 50 nM GDNF by 293 cells or 293 cells stably expressing SorLA. Internalized GDNF (green) was visualized by immunofluorescense. (I) GDNF internalization was inhibited by excess neurotensin (NT, 20 μM).

[6] = target: T1, SorLA extracellular domain (immobilized …); test: SPR (Biacore), SorLA immobilized; GST fusion protein, concentration not given
Description: (A) fusion proteins between GST and the GDNF propeptide (GDNFpropep), the N-terminal 38 amino acids of mature GDNF (GDNFN-term), or the GDNF propeptide followed by the first 38 amino acids of mature GDNF (GDNFN-term propep) binding to immobilized SorLA. GST alone is included as negative control. (B) a peptide encompassing the first 38 amino acids of mature GDNF binds to SorLA in concentration-dependent manner.

[7] = target: T1, SorLA extracellular domain (immobilized …); test: SPR, immobilized SorLA (title of Fig. 17)
[8] = target: T1, SorLA extracellular domain (immobilized …); test: SPR, GDNF over immobilized SorLA; upper end of the range
Experimental: as §1

[9] = target: T1, SorLA extracellular domain (immobilized …); test: SPR, GDNF over immobilized SorLA; lower end of the range
Experimental: as §1

[10] = target: T1, SorLA extracellular domain (immobilized …); test: SPR, immobilized SorLA

Sequence of SorLA extracellular domain (immobilized on the Biacore chip) (Homo sapiens) (Q92673 82-2137 limits assumed): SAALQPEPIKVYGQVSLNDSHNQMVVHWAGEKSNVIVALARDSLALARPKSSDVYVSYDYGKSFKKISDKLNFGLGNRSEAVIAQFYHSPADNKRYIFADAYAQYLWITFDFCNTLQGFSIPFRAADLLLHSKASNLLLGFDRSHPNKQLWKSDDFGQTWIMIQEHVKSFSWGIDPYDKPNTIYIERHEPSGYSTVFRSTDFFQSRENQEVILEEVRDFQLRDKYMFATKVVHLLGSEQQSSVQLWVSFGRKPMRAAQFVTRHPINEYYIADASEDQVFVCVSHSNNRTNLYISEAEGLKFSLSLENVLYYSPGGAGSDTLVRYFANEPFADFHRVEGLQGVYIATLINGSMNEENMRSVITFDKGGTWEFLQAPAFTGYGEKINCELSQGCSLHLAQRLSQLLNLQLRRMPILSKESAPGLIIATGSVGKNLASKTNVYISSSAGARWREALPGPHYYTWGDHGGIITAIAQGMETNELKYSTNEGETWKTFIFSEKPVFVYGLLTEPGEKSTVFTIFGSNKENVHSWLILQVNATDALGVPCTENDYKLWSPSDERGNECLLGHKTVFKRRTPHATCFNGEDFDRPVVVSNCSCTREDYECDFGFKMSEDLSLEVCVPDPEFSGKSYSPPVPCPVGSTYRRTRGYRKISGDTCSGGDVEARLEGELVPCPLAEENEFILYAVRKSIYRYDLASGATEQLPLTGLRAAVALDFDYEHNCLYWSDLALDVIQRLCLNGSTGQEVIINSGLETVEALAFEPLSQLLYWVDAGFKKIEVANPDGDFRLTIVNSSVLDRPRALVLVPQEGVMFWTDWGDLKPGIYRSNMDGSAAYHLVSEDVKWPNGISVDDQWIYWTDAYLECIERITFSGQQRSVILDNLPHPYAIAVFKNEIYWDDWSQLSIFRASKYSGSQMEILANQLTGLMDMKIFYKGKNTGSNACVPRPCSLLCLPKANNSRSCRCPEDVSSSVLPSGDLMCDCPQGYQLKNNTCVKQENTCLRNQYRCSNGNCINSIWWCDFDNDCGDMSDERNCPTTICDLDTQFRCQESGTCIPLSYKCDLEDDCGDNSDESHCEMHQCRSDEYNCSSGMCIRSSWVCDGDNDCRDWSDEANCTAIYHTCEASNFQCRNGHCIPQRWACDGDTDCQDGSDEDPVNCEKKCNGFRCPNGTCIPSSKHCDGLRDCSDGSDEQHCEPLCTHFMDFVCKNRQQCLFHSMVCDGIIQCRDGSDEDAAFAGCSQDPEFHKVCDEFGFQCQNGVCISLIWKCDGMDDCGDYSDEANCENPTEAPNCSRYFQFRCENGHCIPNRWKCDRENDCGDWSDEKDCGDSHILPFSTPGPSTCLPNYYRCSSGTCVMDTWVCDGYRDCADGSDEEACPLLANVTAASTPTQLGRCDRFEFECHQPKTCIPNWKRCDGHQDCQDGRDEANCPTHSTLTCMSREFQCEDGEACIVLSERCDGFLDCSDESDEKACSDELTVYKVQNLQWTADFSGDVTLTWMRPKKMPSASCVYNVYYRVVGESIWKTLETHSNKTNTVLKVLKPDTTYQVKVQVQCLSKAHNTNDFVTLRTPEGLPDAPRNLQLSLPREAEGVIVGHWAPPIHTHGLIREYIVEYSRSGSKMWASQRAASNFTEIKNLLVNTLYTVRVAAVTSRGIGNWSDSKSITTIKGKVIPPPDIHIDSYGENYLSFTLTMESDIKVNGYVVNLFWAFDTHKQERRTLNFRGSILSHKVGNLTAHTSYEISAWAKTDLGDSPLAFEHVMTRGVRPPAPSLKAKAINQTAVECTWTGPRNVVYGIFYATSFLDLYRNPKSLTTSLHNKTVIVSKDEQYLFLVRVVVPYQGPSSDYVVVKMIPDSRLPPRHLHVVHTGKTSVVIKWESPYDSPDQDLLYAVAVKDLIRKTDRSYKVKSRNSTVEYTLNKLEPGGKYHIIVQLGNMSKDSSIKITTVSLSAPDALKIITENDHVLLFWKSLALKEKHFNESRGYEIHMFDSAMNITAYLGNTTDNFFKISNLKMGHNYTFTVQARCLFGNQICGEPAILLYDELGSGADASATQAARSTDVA
T1 sequence (Q92673 82-2137 limits assumed): as above
Sequence of SorLA expressed on cells (stably transfected HEK293 cells; SY5Y neuroblastoma cells, endogenous or overexpressed) (Homo sapiens) (Q92673 82-2214 limits assumed): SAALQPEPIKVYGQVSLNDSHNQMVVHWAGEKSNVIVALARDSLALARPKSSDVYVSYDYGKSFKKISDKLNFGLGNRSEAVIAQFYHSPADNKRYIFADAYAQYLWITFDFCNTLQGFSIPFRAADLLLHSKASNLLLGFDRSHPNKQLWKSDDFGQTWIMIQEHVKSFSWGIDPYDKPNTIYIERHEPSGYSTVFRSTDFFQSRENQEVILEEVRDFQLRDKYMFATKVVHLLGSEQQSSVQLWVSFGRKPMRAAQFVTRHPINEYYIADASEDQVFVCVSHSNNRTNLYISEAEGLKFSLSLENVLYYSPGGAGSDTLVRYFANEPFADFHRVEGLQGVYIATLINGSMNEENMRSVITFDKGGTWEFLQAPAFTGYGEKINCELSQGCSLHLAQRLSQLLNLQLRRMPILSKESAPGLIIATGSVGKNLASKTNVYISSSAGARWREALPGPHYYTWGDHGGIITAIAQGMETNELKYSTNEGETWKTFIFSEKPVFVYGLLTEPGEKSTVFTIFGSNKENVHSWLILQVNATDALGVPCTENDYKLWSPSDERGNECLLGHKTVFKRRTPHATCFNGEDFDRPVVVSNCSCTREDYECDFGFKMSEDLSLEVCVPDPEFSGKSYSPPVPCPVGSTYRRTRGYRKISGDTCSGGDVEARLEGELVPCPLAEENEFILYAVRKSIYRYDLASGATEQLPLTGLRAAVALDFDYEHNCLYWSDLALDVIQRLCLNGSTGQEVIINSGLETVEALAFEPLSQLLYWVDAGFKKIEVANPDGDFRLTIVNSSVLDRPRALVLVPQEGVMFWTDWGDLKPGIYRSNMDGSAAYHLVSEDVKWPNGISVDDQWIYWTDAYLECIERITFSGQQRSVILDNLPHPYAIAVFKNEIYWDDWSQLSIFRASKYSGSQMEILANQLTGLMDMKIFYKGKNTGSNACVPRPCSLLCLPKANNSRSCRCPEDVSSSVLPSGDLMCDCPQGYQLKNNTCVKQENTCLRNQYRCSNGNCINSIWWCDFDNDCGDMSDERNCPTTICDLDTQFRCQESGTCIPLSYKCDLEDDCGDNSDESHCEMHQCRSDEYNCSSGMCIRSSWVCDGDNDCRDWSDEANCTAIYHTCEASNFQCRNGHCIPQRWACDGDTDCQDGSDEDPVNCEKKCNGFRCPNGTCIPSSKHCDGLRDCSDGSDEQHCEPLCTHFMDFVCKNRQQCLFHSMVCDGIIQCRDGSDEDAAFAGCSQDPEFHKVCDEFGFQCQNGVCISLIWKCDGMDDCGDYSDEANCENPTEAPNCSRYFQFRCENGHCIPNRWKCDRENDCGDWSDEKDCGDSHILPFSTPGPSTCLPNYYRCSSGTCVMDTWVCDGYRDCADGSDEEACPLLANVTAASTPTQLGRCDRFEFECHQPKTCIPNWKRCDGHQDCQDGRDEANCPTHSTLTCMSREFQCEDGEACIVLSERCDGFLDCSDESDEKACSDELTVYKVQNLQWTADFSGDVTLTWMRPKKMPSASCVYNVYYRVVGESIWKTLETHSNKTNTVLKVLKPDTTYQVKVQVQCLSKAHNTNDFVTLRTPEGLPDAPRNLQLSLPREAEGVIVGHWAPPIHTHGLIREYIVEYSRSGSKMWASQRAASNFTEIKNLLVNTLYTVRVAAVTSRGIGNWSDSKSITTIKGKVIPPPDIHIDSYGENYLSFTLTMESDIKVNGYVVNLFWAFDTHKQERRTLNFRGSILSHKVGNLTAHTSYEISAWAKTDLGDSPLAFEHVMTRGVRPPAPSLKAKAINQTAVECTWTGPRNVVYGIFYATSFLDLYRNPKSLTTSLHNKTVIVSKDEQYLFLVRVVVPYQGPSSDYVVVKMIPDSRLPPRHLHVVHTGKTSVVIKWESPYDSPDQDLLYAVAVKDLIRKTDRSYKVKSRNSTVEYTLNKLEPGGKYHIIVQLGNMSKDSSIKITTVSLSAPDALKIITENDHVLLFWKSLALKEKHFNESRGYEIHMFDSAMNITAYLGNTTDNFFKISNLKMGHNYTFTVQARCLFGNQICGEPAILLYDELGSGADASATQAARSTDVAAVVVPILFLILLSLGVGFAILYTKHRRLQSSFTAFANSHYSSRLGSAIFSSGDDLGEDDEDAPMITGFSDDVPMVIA

## GFRα1 expressed on cells (stably transfected HEK293 cells) (from UniProt P56159 25-429) (receptor)
[1]
  mean Eapp%: 16%

## N-terminal truncated soluble GFRα1 variant lacking domain 1 (from UniProt P56159 145-429) (receptor)
[2]
  Kd: 120 nM

## soluble full length GFRα1 (from UniProt P56159 25-429) (receptor)
[3]
  Kd: 10 nM
[4]
  Kd: 6 nM
[2]
  Kd: 12 nM

B1: SorLA propeptide (peptide)
peptide: EVWTQRLHGGSAPLPQDRGFLVVQGDPRELRLWARGDARGASRADEKPLRRKR
[5]
  binding result: binds

B2: GDNFN-term propep (other, not shown: a dimerising Fc or GST; large carriers; small tags and cut ends)
chain: FPLPAGKRPPEAPAEDRSLGRRRAPFALSSDSNMPEDYPDQFDDVMDFIQATIKRLKRSPDKQMAVLPRRERNRQAAAANPENSRGKGRRGQRGKN
notes: also called GST fusion of the GDNF propeptide followed by the first 38 amino acids of mature GDNF
[6]
  binding result: binds

B3: GDNFN-term (other)
chain: SPDKQMAVLPRRERNRQAAAANPENSRGKGRRGQRGKN
modifications: also: GST fusion partner (letters not given here)
notes: also called GST fusion of the N-terminal 38 amino acids of mature GDNF; not shown: GST fusion partner and any linker to it
[6]
  binding result: binds

B4: GDNFpropep (other)
fusion protein: FPLPAGKRPPEAPAEDRSLGRRRAPFALSSDSNMPEDYPDQFDDVMDFIQATIKRLKR
notes: also called GST fusion of the GDNF propeptide
[6]
  binding result: no binding

B5: peptide encompassing the first 38 amino acids of mature GDNF (peptide)
peptide: SPDKQMAVLPRRERNRQAAAANPENSRGKGRRGQRGKN
notes: also called N-terminal 38 amino acids of mature GDNF
[7]
  binding result: binds

B6: Glia cell-derived neurotrophic factor (GDNF) (ligand)
chain: SPDKQMAVLPRRERNRQAAAANPENSRGKGRRGQRGKNRGCVLTAIHLNVTDLGLGYETKEELIFRYCSGSCDAAETTYDKILKNLSRNRRLVSDKVGQACCRPIAFDDDLSFLDDNLVYHILRKHSAKRCGCI
notes: also called mature GDNF
[8]
  Kd: ≤ 8 nM
[9]
  Kd: ≥ 3 nM

B7: artemin (ligand, UniProt Q5T4W7 108-220, looked up)
chain: AGGPGSRARAAGARGCRLRSQLVPVRALGLGHRSDELVRFRFCSGSCRRARSPHDLSLASLLGAGALRPPPGSRPVSQPCCRPTRYEAVSFMDVNSTWRTVDRLSATACGCLG
notes: also called ARTN
[10]
  binding result: no binding (tested: 20 nM)

B8: neuturin (neurturin) (ligand, UniProt Q99748 96-197, looked up)
chain: ARLGARPCGLRELEVRVSELGLGYASDETVLFRYCAGACEAAARVYDLGLRRLRQRRRLRRERVRAQPCCRPTAYEDEVSFLDAHSRYHTVHELSARECACV
notes: also called NRTN
[10]
  binding result: no binding (tested: 20 nM)

B9: persephin (ligand, UniProt O60542 61-156, looked up)
chain: ALSGPCQLWSLTLSVAELGLGYASEEKVIFRYCAGSCPRGARTQHGLALARLQGQGRAHGGPCCRPTRYTDVAFLDDRHRWQRLPQLSAAACGCGG
notes: also called PSPN
[10]
  binding result: no binding (tested: 20 nM)

B10: GDNF propeptide (peptide)
peptide: FPLPAGKRPPEAPAEDRSLGRRRAPFALSSDSNMPEDYPDQFDDVMDFIQATIKRLKR
[10]
  binding result: no binding (tested: 100 nM)
